From paper PMC8413284

Tests used:
[1] = target: recombinant human FcγRIIa (human) (UniProt P12318); assay: SPR; R131 allotype
[2] = target: recombinant human FcγRIIIa (human) (UniProt P08637); assay: SPR; F158 allotype
[3] = target: recombinant human FcγRI (human) (UniProt P12314); assay: SPR
[4] = target: rituximab hIgG1 μtp pre-formed hexamer (human); assay: SEC; SE-UHPLC after Protein A purification, against molecular weight controls; ACQUITY BEH200, 200 mM phosphate pH 7.0, 1 µg injected
[5] = target: rituximab hIgG1 μtp pre-formed hexamer (human); assay: negative stain electron microscopy; antibody 10 μg/ml on grids, 2% uranyl acetate, x80,000
[6] = target: rituximab hIgG1 μtp pre-formed hexamer (human); assay: SEC-MALS; 50 μg on Superdex 200 increase 10/300, PBS pH 7.4, 0.5 ml/minute; absolute molecular weight

Sequence of UniProt P08637 (P08637 17-208): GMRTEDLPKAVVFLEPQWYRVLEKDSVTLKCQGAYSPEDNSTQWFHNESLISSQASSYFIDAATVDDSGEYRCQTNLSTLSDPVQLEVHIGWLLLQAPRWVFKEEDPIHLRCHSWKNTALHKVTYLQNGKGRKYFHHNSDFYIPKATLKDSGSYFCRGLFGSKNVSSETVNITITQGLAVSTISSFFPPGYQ
Sequence of UniProt P12318 (P12318 34-217): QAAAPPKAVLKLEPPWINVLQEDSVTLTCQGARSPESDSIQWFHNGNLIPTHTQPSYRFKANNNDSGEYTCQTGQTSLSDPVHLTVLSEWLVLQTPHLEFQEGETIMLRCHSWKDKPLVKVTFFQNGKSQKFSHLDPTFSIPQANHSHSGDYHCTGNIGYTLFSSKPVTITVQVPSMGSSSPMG
Sequence of UniProt P12314 (P12314 16-292): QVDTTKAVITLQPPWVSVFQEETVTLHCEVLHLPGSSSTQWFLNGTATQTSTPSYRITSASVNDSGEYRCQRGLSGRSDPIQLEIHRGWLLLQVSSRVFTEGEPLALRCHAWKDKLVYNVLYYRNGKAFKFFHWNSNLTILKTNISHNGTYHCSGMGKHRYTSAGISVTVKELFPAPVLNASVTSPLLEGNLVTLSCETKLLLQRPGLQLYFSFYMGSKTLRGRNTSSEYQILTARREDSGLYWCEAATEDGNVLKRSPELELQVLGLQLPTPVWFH

| Kd [1] [nM] | Kd [2] [nM] | Kd [3] [nM] | stoichiometry N [4] | stoichiometry N [5] | stoichiometry N [6] | Substance |
| --- | --- | --- | --- | --- | --- | --- |
| 935 | 719 | 4.36 | – | – | – | rituximab hIgG1 wild-type |
| 964 | 410 | 7.53 | – | – | – | rituximab hIgG1 μtp pre-formed hexamer |
| – | – | – | 6 | 6 | 6 | rituximab hIgG1 μtp pre-formed hexamer (antibody) |
